Assay results taken from US12692302B2, “Uses of IL-13 antagonists for treating atopic dermatitis” (Genentech, Inc., priority 2016, dated 2026).
Where two headings read alike, the source gives them in different places.

Assays:
[1] = Clinical Study I: serum lebrikizumab pharmacokinetics; type: in vivo, human; details: AD patients; for Mean Cmax, wk1 / Mean Cmin wk12 / Mean Cmin, wk4 / Mean Cmin, wk8: serum
Protocol: Pharmacokinetic parameters were also assessed as follows. Serum samples for analysis of lebrikizumab pharmacokinetics were obtained at Day 1 (pre-dose) and at Weeks 1, 4 (pre-dose), 6, 8 (pre-dose), 12, 16, and 20 for all dosing regimens. Serum lebrikizumab concentrations were summarized by treatment and visit using descriptive statistics for the patients that received one of the lebrikizumab treatment regimens.

[2] = test system: moderate-to-severe asthmatic patients not controlled on inhaled corticosteroids; details: all doses (37.5, 125, 250 mg Q4W), cited from earlier work

lebrikizumab: monoclonal humanized anti-IL-13 IgG4 antibody; heavy chain SEQ ID NO: 11, light chain SEQ ID NO: 12; formulated at 125 mg/mL in prefilled syringe
t½ (elimination half-life) ([1]; 125 mg Q4W subcutaneous): 20.9 days | t½ (elimination half-life) ([1]; 125 mg SD subcutaneous): 18.5 days | t½ (elimination half-life) ([1]; 250 mg SD subcutaneous): 22.2 days | half-life ([1]; across the dosing regimens): 19 to 22 days | Mean Cmax, wk1 ([1]; 125 mg Q4W subcutaneous): 16100 ng/mL | Mean Cmin wk12 ([1]; 125 mg Q4W subcutaneous): 14400 ng/mL | Mean Cmin, wk4 ([1]; 125 mg Q4W subcutaneous): 9150 ng/mL | Mean Cmin, wk8 ([1]; 125 mg Q4W subcutaneous): 13600 ng/mL | Mean Cmax, wk1 ([1]; 125 mg SD subcutaneous): 17000 ng/mL | Mean Cmin wk12 ([1]; 125 mg SD subcutaneous): 2280 ng/mL | Mean Cmin, wk4 ([1]; 125 mg SD subcutaneous): 10200 ng/mL | Mean Cmin, wk8 ([1]; 125 mg SD subcutaneous): 4590 ng/mL | Mean Cmax, wk1 ([1]; 250 mg SD subcutaneous): 35600 ng/mL | Mean Cmin wk12 ([1]; 250 mg SD subcutaneous): 3770 ng/mL | Mean Cmin, wk4 ([1]; 250 mg SD subcutaneous): 21400 ng/mL | Mean Cmin, wk8 ([1]; 250 mg SD subcutaneous): 9530 ng/mL | reduction in the rate of asthma exacerbations ([2]; biomarker-high (serum periostin-high) patients): 60% | reduction in the rate of asthma exacerbations ([2]; biomarker-low (serum periostin-low) patients): 5%
